Columns and labels:
[1] = tested on: PLCγ1 SA and PLCγ1 tSH2, nSH2 R^586L mutant; assay: AlphaLISA, SA and tSH2 R586L mutant; type: binding; conditions: phosphorylated; 300 nM each protein; versus wt PLCγ1 SA and tSH2
Experimental: Fig 4 The PLCγ1 cSH2 domain is required for the binding of PLCγ1 to phosphorylated pK15 in vitro and may serve as a dominant-negative inhibitor. GST-fused pK15 cytoplasmic tail WT (A), or its truncated mutant N2 [51] (B), were phosphorylated in vitro by 2xStrep-Src and an AlphaLISA was performed with the indicated His-tagged fragments of PLCγ1. Mean and standard deviation from at least two independent experiments with two technical replicates each are depicted. GST fusion proteins of the N1 (C) or N2 (D) truncation mutants of the pK15 cytoplasmic tail were phosphorylated in vitro by 2xStrep-Src and their interaction with recombinant purified PLCγ1 tSH2 (tandem SH2) or SA (γ-specific array) domains was measured by AlphaLISA in the presence of increasing concentrations (300 nM, 600 nM, 900 nM, 1200 nM) of the purified PLCγ1 cSH2. […] After 48h lysates were collected and analysed by Western blot using an antibody to PLCγ1 pY^783 to assess the level of PLCγ1 phosphorylation. (F) The intensities of the pPLCγ1 bands shown in panel E were quantified by densitometry, normalized to the values obtained with the empty vector (EV) in the presence of pK15, and plotted as relative values. […]
His-tagged PLCγ1 (SA, tSH2 or the isolated SH2 domains) was incubated at room temperature with GST-tagged K15P or its mutants for 1 hour. […] Emission at 615 nm was detected on BioTek Synergy 2 plate reader.

[2] = tested on: PLCγ1 cSH2 domain (vs nSH2 domain); assay: GST-pulldown, individual SH2 domains; type: binding; conditions: in vitro phosphorylated; S-tagged individual SH2 domains transfected in HEK 293
Experimental: Fig 3 Contribution of individual PLCγ1 SH2 domains to the interaction with phosphorylated pK15. The pK15 CT fused to GST, its Y^481F mutant, or GST alone were bound to glutathione beads, phosphorylated in vitro (+) or left unphosphorylated (-), and a GST pulldown was performed 32h after transfection into HEK-293T cells of expression vectors for S-tagged full-length PLCγ1 (FL) (A) or PLCγ1 SA (B) containing the indicated mutations. (C) pK15 CT WT, its Y^481F mutant or GST were bound to glutathione beads, phosphorylated in vitro (+) or left unphosphorylated (-), and used for a GST pulldown assay 32h after transfecting HEK 293T cells with expression vectors for S-tagged individual PLCγ1 nSH2 or cSH2 domains. […]
HEK293T cells were washed once with cold PBS 30 hours after transfection, lysed in IP buffer (50 mM Tris pH7.6, 60 mM NaCl, 6.25 mM EDTA, 1% (v/v) glycerol, 0.04% (v/v) NP-40) on ice for 30 minutes, sonicated shortly and cleared by centrifugation for 10 minutes at 20.000g, 4°C. […] Beads were then washed 5 times in 500 μl IP buffer (or for purified proteins IP buffer with 200 mM NaCl), suspended in 10 μl of 5x Laemmli sample buffer (60 mM Tris pH6.8, 24% (v/v) glycerol, 2% (v/v) SDS, 5% (v/v) β-mercaptoethanol, 0.01% Bromphenol Blue) and analysed by western blot.

B1: pK15 CT^WT: pK15 cytoplasmic tail fused to GST at its N-terminal end, phosphorylated in vitro by Src (protein)
chain: SQLLNEVELQEVNRDPPNVFGYASILVSGAEESREPSPQPDQSGMSILRVDGGSAFRIDTAQAATQPTDDLYEEVLFPRN
modifications: tyrosine-phosphorylated in vitro by Src; sites not stated for this construct; left off: GST, N-terminal, kept
Q: With B1 as the molecule, how does the “interaction (AlphaLISA)” value [1] read?
A: Its value is “to a similar extent as wt PLCγ1 SA and PLCγ1 tSH2”.

Q: And the “preference between SH2 domains (GST-pulldown)” value [2]?
A: Its value is “bound preferentially to the PLCγ1 cSH2 domain compared to its nSH2 domain”.
